Data from publication PMC1361355 (PLoS Pathogens, 2006).

How the values were obtained:
[1] = target: T1, NiV-G-Fc, a fusion construct between the ectodomain of NiV-G and the Fc region of human IgG1 (Nipah virus, UniProt Q9IH62 71-602); test: SPR; BIAcore 3000; […]; 1:1 Langmuir model; details: both partners purified
T1 sequence: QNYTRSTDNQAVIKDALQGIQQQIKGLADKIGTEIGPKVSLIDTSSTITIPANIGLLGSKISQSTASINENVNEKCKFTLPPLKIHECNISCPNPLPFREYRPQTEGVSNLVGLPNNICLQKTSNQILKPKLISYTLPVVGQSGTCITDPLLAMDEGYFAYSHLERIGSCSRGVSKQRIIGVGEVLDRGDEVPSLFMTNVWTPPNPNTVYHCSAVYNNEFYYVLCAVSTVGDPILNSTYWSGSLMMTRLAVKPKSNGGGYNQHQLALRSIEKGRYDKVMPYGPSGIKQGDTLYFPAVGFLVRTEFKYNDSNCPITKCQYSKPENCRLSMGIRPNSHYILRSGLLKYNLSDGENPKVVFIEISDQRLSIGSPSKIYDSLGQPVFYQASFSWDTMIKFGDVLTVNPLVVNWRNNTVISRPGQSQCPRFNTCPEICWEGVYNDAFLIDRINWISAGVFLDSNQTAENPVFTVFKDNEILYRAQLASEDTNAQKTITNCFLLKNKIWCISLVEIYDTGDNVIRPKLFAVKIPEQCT

EphB4-Fc = target: T2, EphB4-Fc (UniProt P54760 16-539); test: SPR; unpublished data: BIAcore control, EphB4-Fc binding to ephrinB2-Fc; who was immobilised is not stated; details: both partners purified
T2 sequence (looked up): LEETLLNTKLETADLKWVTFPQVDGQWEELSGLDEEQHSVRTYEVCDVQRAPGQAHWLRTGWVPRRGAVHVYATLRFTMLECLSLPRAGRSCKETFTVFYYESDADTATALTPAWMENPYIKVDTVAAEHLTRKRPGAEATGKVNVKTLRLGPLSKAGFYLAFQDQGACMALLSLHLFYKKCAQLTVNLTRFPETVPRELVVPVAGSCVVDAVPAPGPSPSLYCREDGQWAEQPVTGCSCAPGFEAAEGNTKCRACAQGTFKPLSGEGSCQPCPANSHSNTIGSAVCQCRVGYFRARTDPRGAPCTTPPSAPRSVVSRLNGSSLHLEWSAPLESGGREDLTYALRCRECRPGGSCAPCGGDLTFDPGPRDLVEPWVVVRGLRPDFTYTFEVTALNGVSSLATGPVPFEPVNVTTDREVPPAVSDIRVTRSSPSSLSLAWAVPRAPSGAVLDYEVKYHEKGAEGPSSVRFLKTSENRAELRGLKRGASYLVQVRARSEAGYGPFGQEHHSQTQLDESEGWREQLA

[2] = target: T1, NiV-G-Fc, a fusion construct between …; test: flow cytometry on cells; details: one partner purified

Binder	koff [1]	other results
ephrinB3-Fc (soluble Fc-fusion ephrin protein, purchased) (Fc fusion, source: bought: R & D Systems) LSLEPVYWNSANKRFQAEGGYVLYPQIGDRLDLLCPRARPPGPHSSPNYEFYKLYLVGGAQGRRCEAPPAPNLLLTCDRPDLDLRFTIKFQEYSPNLWGHEFRSHHDYYIIATSDGTREGLESLQGGVCLTRGMKVLLRVGQSPRGGAVPRKPVSEMPMERDRGAAHSLEPGKENLPGDPTSNATSRGAEGPLPPPSMP	0.00194 s⁻¹	
ephrinB2-Fc (soluble Fc-fusion ephrin protein, purchased) (Fc fusion) RSIVLEPIYWNSSNSKFLPGQGLVLYPQIGDKLDIICPKVDSKTVGQYEYYKVYMVDKDQADRCTIKKENTPLLNCARPDQDVKFTIKFQEFSPNLWGLEFQKNKDYYIISTSNGSLEGLDNQEGGVCQTRAMKILMKVGQDASSAGSARNHGPTRRPELEAGTNGRSSTTSPFVKPNPGSSTDGNSAGHSGNNLLGSEVA	0.000106 s⁻¹	
ephrinB2-Fc (soluble Fc-fusion ephrin protein, purchased) (Fc fusion, Ectodomain only. The human IgG1 Fc carrier, which makes the fusion a disulfide-linked dimer, is left out. Species is inferred: the R&D Systems ephrin-B2-Fc of that period was recalled as the mouse …) RSIVLEPIYWNSSNSKFLPGQGLVLYPQIGDKLDIICPKVDSKTVGQYEYYKVYMVDKDQADRCTIKKENTPLLNCARPDQDVKFTIKFQEFSPNLWGLEFQKNKDYYIISTSNGSLEGLDNQEGGVCQTRAMKILMKVGQDASSAGSARNHGPTRRPELEAGTNGRSSTTSPFVKPNPGSSTDGNSAGHSGNNLLGSEVA		Kd (EphB4-Fc): 370 pM
human ephrinB3 stably expressed on CHO-pgsA745 cells (CHO-B3) (natural protein, UniProt Q15768 28-340, looked up, also called cell surface ephrinB3) LSLEPVYWNSANKRFQAEGGYVLYPQIGDRLDLLCPRARPPGPHSSPNYEFYKLYLVGGAQGRRCEAPPAPNLLLTCDRPDLDLRFTIKFQEYSPNLWGHEFRSHHDYYIIATSDGTREGLESLQGGVCLTRGMKVLLRVGQSPRGGAVPRKPVSEMPMERDRGAAHSLEPGKENLPGDPTSNATSRGAEGPLPPPSMPAVAGAAGGLALLLLGVAGAGGAMCWRRRRAKPSESRHPGPGSFGRGGSLGLGGGGGMGPREAEPGELGIALRGGGAADPPFCPHYEKVSGDYGHPVYIVQDGPPQSPPNIYYKV		Kd [2]: 580 pM
